# Target: ab1ip_mouse Apbb1ip (UniProt Q8R5A3)
# UniProt Q8R5A3, sequence (Q8R5A3 whole entry): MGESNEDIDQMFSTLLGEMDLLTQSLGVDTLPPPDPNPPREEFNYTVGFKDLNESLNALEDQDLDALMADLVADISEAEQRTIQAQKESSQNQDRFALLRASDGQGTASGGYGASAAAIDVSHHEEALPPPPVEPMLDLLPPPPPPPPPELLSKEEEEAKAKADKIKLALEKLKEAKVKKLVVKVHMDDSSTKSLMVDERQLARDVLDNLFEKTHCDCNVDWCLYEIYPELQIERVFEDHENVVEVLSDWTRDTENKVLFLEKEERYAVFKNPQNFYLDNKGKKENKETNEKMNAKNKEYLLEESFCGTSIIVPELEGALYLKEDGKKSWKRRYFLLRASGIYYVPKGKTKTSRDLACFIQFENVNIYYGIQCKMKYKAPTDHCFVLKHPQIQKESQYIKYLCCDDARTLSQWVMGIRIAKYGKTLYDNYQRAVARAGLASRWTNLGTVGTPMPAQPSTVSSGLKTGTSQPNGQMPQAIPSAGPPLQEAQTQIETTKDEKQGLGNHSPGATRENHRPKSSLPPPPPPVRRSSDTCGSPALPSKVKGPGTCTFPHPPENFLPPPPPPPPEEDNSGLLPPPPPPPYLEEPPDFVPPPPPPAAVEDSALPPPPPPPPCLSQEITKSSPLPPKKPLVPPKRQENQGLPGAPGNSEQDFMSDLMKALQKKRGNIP
row,effect of a mutation on the interaction,Substance
1,decreasing interaction strength,"Talin-1 (Mus musculus), P26039 V871Y"
2,disrupting interaction strength,"Talin-1 (Mus musculus), P26039 V871Y;V1540Y"
3,decreasing interaction strength,"Talin-1 (Mus musculus), P26039 V1540Y"
